The target of series [1] is T1, DmcN-IIIB (Drosophila melanogaster, UniProt Q9W197).
T1 construct: gene cN-IIIB; full length 1-319; His6-SUMO fusion from pET-SUMOadapt in E. coli Rosetta 2(DE3), tag cleaved (stated for crystallization)
T1 sequence (Q9W197 1-319): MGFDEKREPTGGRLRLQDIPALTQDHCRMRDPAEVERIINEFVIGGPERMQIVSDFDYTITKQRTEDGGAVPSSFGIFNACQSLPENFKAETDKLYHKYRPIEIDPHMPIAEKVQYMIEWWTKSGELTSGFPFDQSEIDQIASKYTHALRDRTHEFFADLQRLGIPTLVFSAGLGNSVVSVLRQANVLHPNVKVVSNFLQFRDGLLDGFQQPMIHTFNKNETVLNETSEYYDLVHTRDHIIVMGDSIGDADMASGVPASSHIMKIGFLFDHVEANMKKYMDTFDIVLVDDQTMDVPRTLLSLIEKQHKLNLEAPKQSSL
The series is described as follows: X-ray crystal structure, […] Å. The series is classed as binding. The following applies: co-crystallized, no MgF3− density; pH 7.5; active site.

The target of series [2] is T1, DmcN-IIIB. The series is described as follows: X-ray crystal structure, […] Å. The class given is binding. The following applies: co-crystallized with MgF3− and Mg2+; pH 7.5; active site.
For another series, the target named is T2, HscN-IIIA (Homo sapiens, UniProt Q9H0P0).
T2 construct: gene NT5C3A
The following applies: 37 °C; preincubated with 5 mM DTT.

Substrate in series [3]: C[n+]1cn([C@@H]2O[C@H](COP(=O)(O)O)[C@@H](O)[C@H]2O)c2nc(N)[nH]c(=O)c21
The series is described as follows: colorimetric malachite green phosphate assay. The settings on record: 25 °C. The class given is biochemical, Drosophila melanogaster.

Substrate in series [4]: Nc1ccn([C@@H]2O[C@H](COP(=O)(O)O)[C@@H](O)[C@H]2O)c(=O)n1
The series can be described thus: colorimetric malachite green phosphate assay. The series is classed as biochemical, Drosophila melanogaster. The settings on record: 25 °C.

Substrate in series [5]: C[n+]1cn([C@@H]2O[C@H](COP(=O)(O)O)[C@@H](O)[C@H]2O)c2nc(N)[nH]c(=O)c21
The series can be described thus: colorimetric malachite green phosphate assay. The class given is biochemical, Homo sapiens. The following applies: 37 °C, preincubated with 5 mM DTT.

Substrate in the series “purified protein”: Nc1ccn([C@@H]2O[C@H](COP(=O)(O)O)[C@@H](O)[C@H]2O)c(=O)n1
The series is described as follows: purified protein. The settings on record: 37 °C, preincubated with 5 mM DTT.

In the case of `Nc1ccn([C@@H]2O[C@H](CO)[C@@H](O)[C@H]2O)c(=O)n1` [cytidine], the “X-ray crystal structure, 2.05 Å” value at DmcN-IIIB [1] is “crystal structures of ^DmcN-IIIB bound to 7-methylguanosine or cytidine have been deposited”.

For `C[n+]1cn([C@@H]2O[C@H](CO)[C@@H](O)[C@H]2O)c2nc(N)[nH]c(=O)c21` [7-methylguanosine], at DmcN-IIIB [2], the “X-ray crystal structure, 1.65 Å” value was “crystal structures of ^DmcN-IIIB bound to 7-methylguanosine or cytidine have been deposited”.

In the case of `C[n+]1cn([C@@H]2O[C@H](COP(=O)(O)O)[C@@H](O)[C@H]2O)c2nc(N)[nH]c(=O)c21` [m^7GMP], the Km (commonly the concentration of substrate that gives half-maximal velocity) on HscN-IIIA stood at 15 µM.

As for `Nc1ccn([C@@H]2O[C@H](COP(=O)(O)O)[C@@H](O)[C@H]2O)c(=O)n1` [CMP], at HscN-IIIA, the Km was determined as 80 µM.

B1: DmcN-IIIB (Drosophila melanogaster) (protein)
chain: MGFDEKREPTGGRLRLQDIPALTQDHCRMRDPAEVERIINEFVIGGPERMQIVSDFDYTITKQRTEDGGAVPSSFGIFNACQSLPENFKAETDKLYHKYRPIEIDPHMPIAEKVQYMIEWWTKSGELTSGFPFDQSEIDQIASKYTHALRDRTHEFFADLQRLGIPTLVFSAGLGNSVVSVLRQANVLHPNVKVVSNFLQFRDGLLDGFQQPMIHTFNKNETVLNETSEYYDLVHTRDHIIVMGDSIGDADMASGVPASSHIMKIGFLFDHVEANMKKYMDTFDIVLVDDQTMDVPRTLLSLIEKQHKLNLEAPKQSSL
notes: full length 1-319; His6-SUMO fusion from pET-SUMOadapt in E. coli Rosetta 2(DE3), tag cleaved (stated for crystallization)
With B1, in series [3], the Km turned out to be 12 µM; the kcat (commonly the maximal rate divided by the concentration of active sites) was determined as 4.8 s⁻¹; the kcat/Km – broadly, the second-order rate constant that governs catalysis at low substrate concentration – worked out at 403000 M⁻¹ s⁻¹. In addition, in series [4], the Km is 48 µM, the kcat is 12 s⁻¹ and the catalytic efficiency (kcat/Km) is 242000 M⁻¹ s⁻¹.

B2: DmcN-IIIB (Drosophila melanogaster; F75H/W121Y) (protein)
chain: MGFDEKREPTGGRLRLQDIPALTQDHCRMRDPAEVERIINEFVIGGPERMQIVSDFDYTITKQRTEDGGAVPSSHGIFNACQSLPENFKAETDKLYHKYRPIEIDPHMPIAEKVQYMIEWYTKSGELTSGFPFDQSEIDQIASKYTHALRDRTHEFFADLQRLGIPTLVFSAGLGNSVVSVLRQANVLHPNVKVVSNFLQFRDGLLDGFQQPMIHTFNKNETVLNETSEYYDLVHTRDHIIVMGDSIGDADMASGVPASSHIMKIGFLFDHVEANMKKYMDTFDIVLVDDQTMDVPRTLLSLIEKQHKLNLEAPKQSSL
notes: as for B1
In the case of B2, in series [3] (variant HGWY), the Km stood at 2 µM, the catalytic constant (kcat) turned out to be 1.5 s⁻¹ and the catalytic efficiency (kcat/Km) is 755000 M⁻¹ s⁻¹. In series [4] (variant HGWY), the Km worked out at 93 µM, the kcat worked out at 3 s⁻¹ and the catalytic efficiency (kcat/Km) worked out at 32500 M⁻¹ s⁻¹.

B3: DmcN-IIIB (Drosophila melanogaster; F75H/G76N/W121Y) (protein)
chain: MGFDEKREPTGGRLRLQDIPALTQDHCRMRDPAEVERIINEFVIGGPERMQIVSDFDYTITKQRTEDGGAVPSSHNIFNACQSLPENFKAETDKLYHKYRPIEIDPHMPIAEKVQYMIEWYTKSGELTSGFPFDQSEIDQIASKYTHALRDRTHEFFADLQRLGIPTLVFSAGLGNSVVSVLRQANVLHPNVKVVSNFLQFRDGLLDGFQQPMIHTFNKNETVLNETSEYYDLVHTRDHIIVMGDSIGDADMASGVPASSHIMKIGFLFDHVEANMKKYMDTFDIVLVDDQTMDVPRTLLSLIEKQHKLNLEAPKQSSL
notes: as for B1
Regarding B3, in series [3] (variant HNWY), the Km worked out at 11 µM, the kcat is 0.5 s⁻¹ and the kcat/Km stood at 49500 M⁻¹ s⁻¹. In addition, in series [4] (variant HNWY), the Km is given as 315 µM, the kcat is 9 s⁻¹ and the kcat/Km came out at 28800 M⁻¹ s⁻¹.

B4: DmcN-IIIB (Drosophila melanogaster; W121Y) (protein)
chain: MGFDEKREPTGGRLRLQDIPALTQDHCRMRDPAEVERIINEFVIGGPERMQIVSDFDYTITKQRTEDGGAVPSSFGIFNACQSLPENFKAETDKLYHKYRPIEIDPHMPIAEKVQYMIEWYTKSGELTSGFPFDQSEIDQIASKYTHALRDRTHEFFADLQRLGIPTLVFSAGLGNSVVSVLRQANVLHPNVKVVSNFLQFRDGLLDGFQQPMIHTFNKNETVLNETSEYYDLVHTRDHIIVMGDSIGDADMASGVPASSHIMKIGFLFDHVEANMKKYMDTFDIVLVDDQTMDVPRTLLSLIEKQHKLNLEAPKQSSL
notes: as for B1
Take B4: in series [4] (variant FGWY), the Michaelis-Menten constant (Km) is 14 µM, the kcat was determined as 6 s⁻¹ and the kcat/Km amounted to 410000 M⁻¹ s⁻¹.

B5: DmcN-IIIB (Drosophila melanogaster; F75H) (protein)
chain: MGFDEKREPTGGRLRLQDIPALTQDHCRMRDPAEVERIINEFVIGGPERMQIVSDFDYTITKQRTEDGGAVPSSHGIFNACQSLPENFKAETDKLYHKYRPIEIDPHMPIAEKVQYMIEWWTKSGELTSGFPFDQSEIDQIASKYTHALRDRTHEFFADLQRLGIPTLVFSAGLGNSVVSVLRQANVLHPNVKVVSNFLQFRDGLLDGFQQPMIHTFNKNETVLNETSEYYDLVHTRDHIIVMGDSIGDADMASGVPASSHIMKIGFLFDHVEANMKKYMDTFDIVLVDDQTMDVPRTLLSLIEKQHKLNLEAPKQSSL
notes: as for B1
Consider B5, for which, in series [3] (variant HGWW), the Michaelis-Menten constant (Km) is listed as 40 µM, the catalytic constant (kcat) stood at 4.2 s⁻¹ and the specificity constant (kcat/Km) is 106000 M⁻¹ s⁻¹. Also, in series [4] (variant HGWW), the Km was determined as 490 µM, the kcat was 8 s⁻¹ and the kcat/Km came out at 16000 M⁻¹ s⁻¹.

B6: DmcN-IIIB (Drosophila melanogaster; G76N/W121Y) (protein)
chain: MGFDEKREPTGGRLRLQDIPALTQDHCRMRDPAEVERIINEFVIGGPERMQIVSDFDYTITKQRTEDGGAVPSSFNIFNACQSLPENFKAETDKLYHKYRPIEIDPHMPIAEKVQYMIEWYTKSGELTSGFPFDQSEIDQIASKYTHALRDRTHEFFADLQRLGIPTLVFSAGLGNSVVSVLRQANVLHPNVKVVSNFLQFRDGLLDGFQQPMIHTFNKNETVLNETSEYYDLVHTRDHIIVMGDSIGDADMASGVPASSHIMKIGFLFDHVEANMKKYMDTFDIVLVDDQTMDVPRTLLSLIEKQHKLNLEAPKQSSL
notes: as for B1
For B6, in series [3] (variant FNWY), the Km is recorded as 8 µM, the kcat amounted to 0.3 s⁻¹ and the catalytic efficiency (kcat/Km) came out at 37800 M⁻¹ s⁻¹.

B7: DmcN-IIIB (Drosophila melanogaster; G76N) (protein)
chain: MGFDEKREPTGGRLRLQDIPALTQDHCRMRDPAEVERIINEFVIGGPERMQIVSDFDYTITKQRTEDGGAVPSSFNIFNACQSLPENFKAETDKLYHKYRPIEIDPHMPIAEKVQYMIEWWTKSGELTSGFPFDQSEIDQIASKYTHALRDRTHEFFADLQRLGIPTLVFSAGLGNSVVSVLRQANVLHPNVKVVSNFLQFRDGLLDGFQQPMIHTFNKNETVLNETSEYYDLVHTRDHIIVMGDSIGDADMASGVPASSHIMKIGFLFDHVEANMKKYMDTFDIVLVDDQTMDVPRTLLSLIEKQHKLNLEAPKQSSL
notes: as for B1
Turning to B7, in series [3] (variant FNWW), the Michaelis constant (Km) amounted to 2 µM, the kcat was found to be 1.1 s⁻¹ and the kcat/Km was found to be 545000 M⁻¹ s⁻¹. In addition, in series [4] (variant FNWW), the Km is reported as 51 µM, the turnover number (kcat) is 8 s⁻¹ and the kcat/Km is 166000 M⁻¹ s⁻¹.

B8: HscN-IIIB (Homo sapiens) (protein)
chain: MAEEVSTLMKATVLMRQPGRVQEIVGALRKGGGDRLQVISDFDMTLSRFAYNGKRCPSSYNILDNSKIISEECRKELTALLHHYYPIEIDPHRTVKEKLPHMVEWWTKAHNLLCQQKIQKFQIAQVVRESNAMLREGYKTFFNTLYHNNIPLFIFSAGIGDILEEIIRQMKVFHPNIHIVSNYMDFNEDGFLQGFKGQLIHTYNKNSSACENSGYFQQLEGKTNVILLGDSIGDLTMADGVPGVQNILKIGFLNDKVEERRERYMDSYDIVLEKDETLDVVNGLLQHILCQGVQLEMQGP
Regarding B8, in series [5], the Michaelis constant (Km) turned out to be 8 µM, the kcat is 0.5 s⁻¹ and the kcat/Km is 64500 M⁻¹ s⁻¹. Moreover, in the series “purified protein”, the Km was 79 µM, the kcat was determined as 7 s⁻¹ and the kcat/Km turned out to be 87100 M⁻¹ s⁻¹.
